Experimental data reported in patent publication US8357523B2, “Beta-glucosidase variant enzymes and related polynucleotides” (Codexis, Inc., priority 2009, dated 2013).
Residue numbers refer to the chain shown, from its start.

B1: 7 (protein)
chain: STAIAQEGAAPAAILHPEKWPRPATQRLIDPAVEKRVDALLKQLSVEEKVGQVIQGDIGTITPEDLRKYPLGSILAGGNSGPNGDDRAPPKEWLDLADAFYRVSLEKRPGHTPIPVLFGIDAVHGHGNIGSATIFPHNIALGATHDPELLRRIGEVTAVEMAATGIDWTFAPALSVVRDDRWGRTYEGFSEDPEIVAAYSAAIVEGVQGKYGSKDFMAPGRIVASAKHFLADGGTDQGRDQGDARISEDELIRIHNAGYPPAIDAGVLTVMASFSSWQGIKHHGHKQLLTDVLKGQMGFNGFIVGDWNAHDQVPGCTKFNCPTSLIAGLDMYMAADSWKQLYENTLAQVKDGTIPMARLDDAVRRILRVKVLAGLFEKPAPKDRPGLPGLETLGSPEHRAVGREAVRKSLVLLKNDKGTLPLSPKARVLVAGDGADNIGKQSGGWTISWQGTGNRNDEFPGATSILGGIRDAVADAGGSVEFDVAGQYKTKPDVAIVVFGEEPYAEFQGDVETLEYQPDQKQDLALLKKLKDQGIPVVAVFLSGRPMWVNPELNASDAFVAAWLPGTEGGGVADVLFTDKAGKVQHDFAGKLSYSWPRTAAQTTVNRGDADYNPLFAYGYGLTYKDKSKVGTLPEESGVPAEARQNAGIYFRAGALRLPGRFL
B2: 24 (protein)
chain: B1 chain with Y211F, P219V
B3: 10 (protein)
chain: B1 chain with A198M, Y211F
B4: 32 (protein)
chain: B1 chain with Y211F, I222G
B5: 22 (protein)
chain: B1 chain with V159I, Y211F
B6: 31 (protein)
chain: B1 chain with A198Q, Y211F
B7: 15 (protein)
chain: B1 chain with R151P, Y211F
B8: 33 (protein)
chain: B1 chain with V159R, Y211F
B9: 8 (protein)
chain: B1 chain with A162T, Y211F
B10: 17 (protein)
chain: B1 chain with Y211F, P219M
B11: 27 (protein)
chain: B1 chain with A202Y, Y211F
B12: 16 (protein)
chain: B1 chain with A198S, Y211F
B13: 12 (protein)
chain: B1 chain with A202N, Y211F
B14: 28 (protein)
chain: B1 chain with Y211W
B15: 9 (protein)
chain: B1 chain with A201G, Y211F
B16: 30 (protein)
chain: B1 chain with E155D, Y211F
B17: 26 (protein)
chain: B1 chain with A202F, Y211F
B18: 18 (protein)
chain: B1 chain with V159A, Y211F
B19: 14 (protein)
chain: B1 chain with D146S, Y211F
B20: 23 (protein)
chain: B1 chain with A202P, Y211F
B21: 11 (protein)
chain: B1 chain with V159L, Y211F
B22: 25 (protein)
chain: B1 chain with R151P, Y211F
B23: 21 (protein)
chain: B1 chain with V159Q, Y211F
B24: 20 (protein)
chain: B1 chain with A198N, Y211F
B25: 19 (protein)
chain: B1 chain with A198L, Y211F
B26: 34 (protein)
chain: B1 chain with Y211F, I222S
B27: 29 (protein)
chain: B1 chain with A201P, Y211F
B28: 13 (protein)
chain: B1 chain with A198C, Y211F

experiment: High throughput cellobiose assay: fold improvement in cellobiase activity of CelA variants over a control enzyme (Tables 2A-2D, 3, 5, 6, 7); assay type: biochemical; details: 3.3 g/l cellobiose, 50° C. and pH 6.5; compared to native CelA (SEQ ID NO: 4)
Description: β-glucosidase activity was also determined using a cellobiose assay, which used cellobiose as substrate. In a total volume of 100 μL, 25 μL clear media supernatant containing CelA enzyme was added to 10 g/L cellobiose (Fluka Cat. No. 22150, Sigma-Aldrich, Inc., St. Louis, Mo.) in 100 mM sodium phosphate buffer (pH 6-7) or sodium acetate buffer (pH 5-5.5). The reaction was incubated at 45-70° C. for an appropriate time (25 minutes to overnight depending on the enzyme concentration) while shaking. Glucose production was determined using an enzymatic glucose assay (K-GLUC, Megazyme, Ireland). 10 μl of each reaction was added to 190 μl GOPOD reagent (supplied as part of the K-GLUC assay kit). The reaction was incubated at 45° C. for 20 minutes and the absorbance of the solution was measured at 510 nm. The GOPOD reagent contains 50 mM Potassium phosphate buffer pH7.4, 0.011M p-hydroxybenzoic acid, 0.008% w/v sodium azide, glucose oxidase (>12,000 U/L), peroxidase (>650 U/L) and 80 mg/L 4-aminoantipyrine. The glucose oxidase enzyme in the reagent reacts with any glucose present in the sample and produces hydrogen peroxide which then reacts with the 4-aminoantipyrine to produce a quinoneimine dye in quantities proportionate with the amount of glucose present and can be measured spectrophotometrically at 510 nm. Detectable β-glucosidase activity was observed under high throughput screening conditions (i.e., pH 7, 50° C.).
Plasmid libraries containing variant CelA genes were transformed into B. megaterium and plated on Luria-Bertani (LB) agar plates containing 3 μg/mL tetracycline with a DM3 regeneration media overlay (400 mM sodium succinate dibasic, pH 7.3, 0.5% casamino acids, 0.5% yeast extract, 0.4% K2HPO4, 0.2% KH2PO4, 20 mM MgCl2, 0.5% glucose and 0.2% BSA). After incubation for at least 18 hours at 30° C., colonies were picked using a Q-bot® robotic colony picker (Genetix USA, Inc., Beaverton, Oreg.) into shallow, 96-well well microtiter plates containing 180 μL, LB and 10 μg/mL tetracycline. Cells were grown overnight at 37° C. with shaking at 200 rpm and 85% humidity. 10 μL of this culture was then transferred into 96-well microtiter plates (deep well) containing 390 μL A5-glucose-xylose medium and 10 μg/mL tetracycline as described in example 2. The plates were then incubated at 37° C. with shaking at 250 rpm and 85% humidity overnight (˜18-24 hours). The deep plates were centrifuged at 4000 rpm for 15 minutes and the clear media supernatant containing the secreted CelA enzyme was used for the high throughput pNPG or cellobiose assay of Example 5.
The CelA libraries were screened in high throughput using the cellobiose assay of Example 5 (Substrate: cellobiose; pH: 5-7; temperature: 45-72° C.; time: 2-24 hrs) for the identification of improved variants.
In shallow, 96-well microtiter plates 25 μL of media supernatant was added to 75 μL of […] cellobiose in 150 mM sodium acetate buffer pH 5-5.5 or 150 mM sodium phosphate buffer pH6-7. After sealing with aluminum/polypropylene laminate heat seal tape (Velocity 11 (Menlo Park, Calif.), Cat#06643-001), the plates were shaken at 45-65° C. for up to 24 hrs. The plates were centrifuged for 5 minutes at 4000 rpm. In shallow well clear microtiter plates, 10 μL of the reaction mixture was added to 190 μL of GOPOD reagent (as in example 5B) per well. The solutions were incubated at 45° C. for 1 hour and absorbance was measured at 510 nm for the identification of active CelA variants.
Improved CelA variants were identified from the high throughput screening of various CelA variant libraries as described in Example 7, using the cellobiose assay of Example 5 using 3.3 g/l cellobiose at temperatures from 50°-55° C. at a pH in the range of 5.3-6.5. Tables 2A, 2B, 2C, and 2D and Table 3 depict the improvement in activities of CelA variants encompassed by the invention. The assay conditions are indicated in each table. […]

Molecule	Fold improvement over wildtype CelA
B1	++ (++ = 2.1 to 2.6 fold improvement over native CelA (SEQ ID NO: 4))
B2	+ (+ = 1.1 to 2.0 fold improvement over native CelA (SEQ ID NO: 4))
B3	+ (+ = 1.1 to 2.0 fold improvement over native CelA (SEQ ID NO: 4))
B4	+ (+ = 1.1 to 2.0 fold improvement over native CelA (SEQ ID NO: 4))
B5	+ (+ = 1.1 to 2.0 fold improvement over native CelA (SEQ ID NO: 4))
B6	+ (+ = 1.1 to 2.0 fold improvement over native CelA (SEQ ID NO: 4))
B7	+ (+ = 1.1 to 2.0 fold improvement over native CelA (SEQ ID NO: 4))
B8	+ (+ = 1.1 to 2.0 fold improvement over native CelA (SEQ ID NO: 4))
B9	+ (+ = 1.1 to 2.0 fold improvement over native CelA (SEQ ID NO: 4))
B10	+ (+ = 1.1 to 2.0 fold improvement over native CelA (SEQ ID NO: 4))
B11	+ (+ = 1.1 to 2.0 fold improvement over native CelA (SEQ ID NO: 4))
B12	+ (+ = 1.1 to 2.0 fold improvement over native CelA (SEQ ID NO: 4))
B13	+ (+ = 1.1 to 2.0 fold improvement over native CelA (SEQ ID NO: 4))
B14	++ (++ = 2.1 to 2.6 fold improvement over native CelA (SEQ ID NO: 4))
B15	+ (+ = 1.1 to 2.0 fold improvement over native CelA (SEQ ID NO: 4))
B16	+ (+ = 1.1 to 2.0 fold improvement over native CelA (SEQ ID NO: 4))
B17	+ (+ = 1.1 to 2.0 fold improvement over native CelA (SEQ ID NO: 4))
B18	+ (+ = 1.1 to 2.0 fold improvement over native CelA (SEQ ID NO: 4))
B19	++ (++ = 2.1 to 2.6 fold improvement over native CelA (SEQ ID NO: 4))
B20	+ (+ = 1.1 to 2.0 fold improvement over native CelA (SEQ ID NO: 4))
B21	+ (+ = 1.1 to 2.0 fold improvement over native CelA (SEQ ID NO: 4))
B22	+ (+ = 1.1 to 2.0 fold improvement over native CelA (SEQ ID NO: 4))
B23	+ (+ = 1.1 to 2.0 fold improvement over native CelA (SEQ ID NO: 4))
B24	+ (+ = 1.1 to 2.0 fold improvement over native CelA (SEQ ID NO: 4))
B25	+ (+ = 1.1 to 2.0 fold improvement over native CelA (SEQ ID NO: 4))
B26	+ (+ = 1.1 to 2.0 fold improvement over native CelA (SEQ ID NO: 4))
B27	++ (++ = 2.1 to 2.6 fold improvement over native CelA (SEQ ID NO: 4))
B28	+ (+ = 1.1 to 2.0 fold improvement over native CelA (SEQ ID NO: 4))
